In patent publication US20220144922A1 (Adimab, published 2022):
Residue numbers refer to the chain shown, from its start.

B1: ADI-15620 (antibody, V domains shown)
VH: QVQLVQSGAEVKKPGASVKVSCKASGYTFTSYDINWVRQATGHGLEWMGWMSPNSGYTGYAQKFQGRVTMSRNTSTGTAYMELSSLRSEDTAVYYCAREARDLRVGATNFDYWGQGTLVTVSS
VL: QPVLTQPPSVSVSPGQTASITCSGDKLGDKYISWYQQRPGQSPVMVIYQDSKGPSGIPERFSGSNSGNTATLTISGTQAMDEADYYCQAWDSSIDVVFGGGTKLTVL
notes: IgG
B2: ADI-15597 (antibody, V domains shown)
VH: QVQLVQSGGGLVKPGGSLRLSCAGSGFTFSSYTLNWVRQAPGKGLEWVSSISSSSTYIYYADSVKGRFTISRDNAKNSLHLQMNSLRAEDTAVYYCARADYDRSVYHLNWFDPWGQGTLVTVSS
VL: QSVLTQPPSVSGAPGQRVTISCTGSSSNIGAGYDVHWYQQLPGAAPKLLIYGNTNRPSGVPDRFSGSKSGTSASLAITGLQADDEADYYCQSYDSSLSGTWVFGGGTKLTVL
notes: IgG
B3: ADI-15615 (antibody, V domains shown)
VH: B2 VH with Q1E, Q6E, S7T, F111L
VL: B2 VL with S2P
notes: IgG; also called Antibody Number 180
B4: ADI-15625 (antibody, V domains shown)
VH: EVQLVESGAEVRKPGASVQVSCKASGYTFTSYYMHWVRQAPGHGLEWMGMIYPSGGSTSYAQKFQGRVTMTRDTSTSTVYMELSSLRSEDAAVYYCARDRAGCSGGSCYYYGMDVWGQGTTVTVSS
VL: NFMLTQPPSVSVSPGQTASITCSGNKLGDKYACWYQQKPGQSPVLVISQDSKRPSGIPERFSGSNSGNTATLTISGTQAMDEADYYCQAWDSRTVVFGGGTKLTVL
notes: IgG; also called Antibody Number 190
B5: ADI-15621 (antibody, V domains shown)
VH: QVQLVQSGPEMKKPGSSVKVSCKPSGGTFSSYSVSWVRQAPGQGLEWMGGIIPIFGSSDYAQKFQGRLTITEDESTKTSYMQLNNLTSDDTAIYFCARDNYYVWTGHYPEFDFWGQGTLVTVSS
VL: ETTLTQSPGTLSLSLGETATLSCRASQSVRSDYLAWYQQKPGQAPRLLISGASNRATAIPERFTGSGSGTDFTLTISSLEPADFAVYYCQQYGSTPITFGQGTRLEIK
notes: IgG; also called Antibody Number 186
B6: ADI-15637 (antibody, V domains shown)
VH: QVQLVQSGAEVTKPGASVRVSCKFSAYTLSALSIHWVRQAPGKGLEWMGAFDPEDGEPIYSQHFQGRVTMTEDTSTQTAYMELNSLRSEDTAVYYCSSVGPAGWFDPWGQGTLVTVSS
VL: DIRLTQSPSSLSASVGDRVSITCRASQSISSYLHWYQQKPGKAPKLLIYAASSLQSGVPSRFSGSGSGSDFTLTISSLQPEDFATYYCHQSYIPPFTFGPGTKLEIK
notes: IgG; also called Antibody Number 202
B7: ADI-15557 (antibody, V domains shown)
VH: QVQLVQSGAEVKRPGSSVKVSCKASGGTFSSFAINWVRQAPGQGLEWMGGLIPIFGTPNNAQKFQGRVTITADESTSTAYMELSSLRSEDTAVYYCASLRYFDWQPGGSYWFDPWGQGTLVTVSS
VL: QPGLTQPPSVSVAPGKTARIACGGDNIGTKGVHWYQQKPGQAPVLVIYYDSDRPSGIPERFSGSNSGNTATLTISGVEAGDEADYYCQVWDTIDDHKDGLFGGGTKLTVL
notes: IgG
B8: ADI-15616 (antibody, V domains shown)
VH: QVQLVQSGGGLVKPGGSLRLSCAASGFTFSDHYMTWIRQAPGKGLEWVSYISSTSSFTNYADSVKGRFTISRDNAKKSLYLQMNSLRAEDTAVYYCARDRNWGYAYGSDYWGQGTLVTVSS
VL: DIRLTQSPDTLSLSPGERATLSCRASQSVSSTYLAWYQQKPGQAPRLLIYGAFGRATGIPDRFSGSGSGTDFTLTISRLEPEDFAVYYCQLYGNSRTFGQGTKLEIK
notes: IgG
B9: ADI-15618 (antibody, V domains shown)
VH: EVQLVETGGGLIQPGGSLRLSCVASGFSLRNYALGWLRQAPGKGLEWVSGGYYGDVYYTDSVKGRFAVSRDNSGDTVYLEMDNLRVEDTAVYYCARMETVTTDAGSGWDWYFEVWGRGTLVTVSS
VL: ETTLTQSPATLSLSPGDWATLSCRASQSVGTYLAWYQHKPGQAPRLLIHDASNRASDIPSRFSGSGSGTDFTLTIRGLEPEDFAVYYCQQHRDWRPVTFGGGTKVEIK
notes: IgG
B10: ADI-15607 (antibody, V domains shown)
VH: QVQLVQSGGGLVQPGGSLRLSCAASRFTFSSYAMSWVRQAPGKGLEWVSTISGSGISTYYADSVKGRFTISRDNSKNTLYLQMNSLSAEDTAVYYCAKELREYYYDSSGFDYWGQGTLVTVSS
VL: QPVLTQSRSVSGSPEQSVTISCTGTSSDVGGYNYVSWYQQHPGKAPKLMIYDVSKRPSGVPDRFSGSKSGNTASLTISGLQAEDESDYYCCSYAGTYTYVFGTGTKVTVL
B11: ADI-15558 (antibody, V domains shown)
VH: QVQLVQSGGEVKKPGASVKVSCKASGYTFTTYGISWVRQAPGHGLEWLGWISPKNGNTKYAQKVQGRVTMTIDPTTSTAYMELRSLRSDDTAMYYCARDYIVAIVAALPHGMDVWGQGTLVTVSS
VL: QSVLTQPPSLSVSPGQTASISCSGDQLGNKYVCWYQQKPGQSPVLVIYQDSRRPSGVPERFSGSNSGNTATLTVGGTQPMDEADYYCQAWDSSIRVFGGGTKVTVL
notes: IgG
B12: ADI-15559 (antibody, V domains shown)
VH: QVQLVQSGAEVKKPGSSVKVSCKASGGSLSTYGIHWVRQAPGQGLEWVGGVMTVYGKTTYGQNFQGRVTIAVDRSTNTAYMELSSLTSDDTGTYYCATDSYYVWTGSYPPPFDLWGQGTLVTVSS
VL: EIVLTQTPGTQSLSPGQSATLSCRASHSVGNDYLAWYQQKPGQSPRLLIHGAYRRDSGIPDRFIGSGSGTDFTLTIDSLEPDDCAVYYCQQYGSWPLTFGGGTKVDIK
notes: IgG; also called Antibody Number 130
B13: ADI-15622 (antibody, V domains shown)
VH: QVQLQESGGGLVQPGGSLRLSCSASGFTFSNYGMSWVRQAPGKGLEWVSGIGVSDGSTHYADSVKGRFIISRDNSKNMLSLQMSSLGVDDTAVYYCARIVIVGVLRFQEWLSSDGMDVWGQGTTVTVSS
VL: DIVMTQTPSSVSASVGDRVTITCRASQAISGGLAWYQQKAGKAPKLLIYAASNLPSGVPSRFSGSGSGTDFTLTISSLQPEDFATYYCQQANSFPFTFGQGTRLEIK
notes: IgG; also called Antibody Number 187
B14: ADI-15574 (antibody, V domains shown)
VH: QVQLVQSGGGLVKPGGSLRLSCAASGFTISGYNMFWVRQPPGKGLEWVSSITAGSSYLNYADSVKGRFIVSRDNAKNSLYLQMNSLRAEDTAVYFCARAPLLPAMMDLWGQGTTVTVSS
VL: QSVLTQPPSVSGAPGQRVTISCTGSSSNIGAGYDVHWYQQLPGTAPKLLIYTNNNRPSGVPDRFSGSKSGTSASLAITGLQAEDEADYYCQSYDRSLNGYVFGTGTKLTVL
notes: IgG; also called Antibody Number 144
B15: ADI-15624 (antibody, V domains shown)
VH: QVQLVQSGGGLVKAGGSLRLSCAASGFTISGFYMTWIRQAPGKGLEWVSSISGSSSYTNYADSVKGRFTISRDNAKNSLYLHMNSLRAEDTAVYYCARIRPDDSSGYPDYWGQGTLVTVSS
VL: B14 VL with Y38C, T52G, R95S, N98S, Y100F, L108V
notes: IgG; also called Antibody Number 189
B16: ADI-15638 (antibody, V domains shown)
VH: EVQLVESGGGLVKPGGSLRLSCAASGFTITSYGMNWVRQAPGKGLEWVSSISSSSSFIHYGDSVKGRFTISRDNAKNSLYLQMNSLRAGDTAVYYCVRDSGHQDYRGDYWGQGTLVTVSS
VL: B14 VL with L4V, T19S, T78N, N98S, Y100W, T104G
notes: IgG
B17: ADI-15635 (antibody, V domains shown)
VH: B14 VH with Q1E, V5L, Q6E
VL: B14 VL with L108V
notes: IgG; also called Antibody Number 200
B18: ADI-15648 (antibody, V domains shown)
VH: B14 VH with Q1E, Q6E
VL: B14 VL with L4V, K107T, L108V
notes: IgG; also called Antibody Number 212
B19: ADI-15595 (antibody, V domains shown)
VH: EVQLVESGPTLVKPTQTLTLTCTFSGFSLTTIGVGVGWIRQPPGKALEFLGIVYWDDDKRYSPSLKSRLTITKDTSKNQVVLTMTTLAPEDTGTYYCTYARYSSALFGGYYFHSWGQGTLVTVSS
VL: QSVLTQPPSVSVAPGQTAKITCGGNDIGSRSVHWYQQKPGQAPVLVVYDNSDRPSGIPERFSGSNSGDTATLTISRVEAGDEAVYYCQVWESSGDHPRIFGGGTKLTVL
B20: ADI-15631 (antibody, V domains shown)
VH: QVQLVESGGGLVQPGRSLRLSCAASGFTFDNYPMHWIRQAPGKGLEWVSGISWHSGSIGYADSVKGRFTISRDNAKNSLYLQMNSLRTEDTALYYCAKDAHYFDNSGHYYYGLDVWGQGTTVTVSS
VL: EIVLTQSPATLSVSPGERATLSCRASQNIINNLAWYQQKPGQAPRLLISGASTRATGIPARFSGSGSGTEFTLTITSLQSEDFAVYYCQQYNNWPLTFGGGTKVDIK
notes: IgG

How the values were obtained:
[1] = molecular target: RSV F protein of subtype A strain A2, on virus (respiratory syncytial virus subtype A …, UniProt P03420 26-574); assay: cell-based or functional assay
[2] = molecular target: RSV F protein of subtype B strain 18537, on virus (respiratory syncytial virus subtype B …, UniProt P13843 26-574); assay: cell-based or functional assay
[3] = molecular target: T1, prefusion-stabilized RSV F ectodomain (DS-Cav1), subtype B (respiratory syncytial virus subtype B); assay: BLI, IgG on sensor
T1 construct: extracellular domain; also called Prefusion subtype B
Procedure: IgG binding to DS-Cav1 and FA FP was determined by BLI measurements using a FortéBio Octet HTX instrument (Pall Life Sciences). […] Data was analyzed using the ForteBio Data Analysis Software 7. The data was fit to a 1:1 binding model to calculate an association and dissociation rate, and KD was calculated using the ratio kd/kₐ.

Binder | Neut IC50 (ug/ml) subtype A [1] | Neut IC50 (ug/ml) subtype B [2] | Kd [3]
B1 | 0.077 µg/mL | 0.053 µg/mL | 1.4 nM
B2 | 0.163 µg/mL | 1.79 µg/mL | 6.09 nM
B3 | 0.977 µg/mL | 1.68 µg/mL | 11.6 nM
B4 | 0.239 µg/mL | 1.2 µg/mL | 2.61 nM
B5 | 0.018 µg/mL | 0.021 µg/mL | 0.555 nM
B6 | 0.357 µg/mL | 1.05 µg/mL | 6.13 nM
B7 | 0.041 µg/mL | 0.028 µg/mL | 0.61 nM
B8 | 4.52 µg/mL | 5.58 µg/mL | 1.74 nM
B9 | 0.003 µg/mL |  | 0.535 nM
B10 | > 10 µg/mL | > 10 µg/mL | 
B11 |  |  | 0.94 nM
B12 | 0.008 µg/mL | 0.006 µg/mL | 0.98 nM
B13 | 0.544 µg/mL | 1.37 µg/mL | 1.51 nM
B14 | 0.176 µg/mL | 0.226 µg/mL | 0.46 nM
B15 | 0.051 µg/mL | 0.033 µg/mL | 0.407 nM
B16 | 0.178 µg/mL | > 10 µg/mL | 0.402 nM
B17 | 0.115 µg/mL | 0.226 µg/mL | 0.431 nM
B18 | 0.064 µg/mL | 0.145 µg/mL | 0.438 nM
B19 | 0.02 µg/mL | 0.17 µg/mL | 
B20 | 0.099 µg/mL | 0.207 µg/mL | 0.552 nM
